Measured values: doi:10.1101/2021.10.01.462756 (bioRxiv, 2021)

B3: Ddc1 (natural protein)
chain: MSFKATITESGKQNIWFRAIYVLSTIQDDIKITVTTNELIAWSMNETDTTLCQVRFQKSFFEEYEFKPHEIVFGENGVQVIEDTYGNSHKLYSFRVNGRHLTTISRKPDGDGIKSFTIAVNNTSTCPESLANRLIVVIEMDSLIVKEYCPQFQPIKYDPIIINLKYKRRFLDVFGTAASDRNPQEPLDPKLLDVFTNTERELTSALFNEEVESDIRKRNQLTAADEINYICCNSTLLKNFLDNCNVNVTDEVKLEINVHRLSITAFTKAVYGKNNDLLRNALSMSNTISTLDLEHYCLFTTIEDEKQDKRSHSKRREHMKSIIFKLKDFKNFITIGPSWKTTQDGNDNISLWFCHPGDPILMQMQKPGVKLELVEVTDSNINDDILEGKFIKTAISGSKEEAGLKDNKESCESPLKSKTALKRENLPHSVAGTRNSPLKVSYLTPDNGSTVAKTYRNNTARKLFVEEQSQSTNYEQDKRFRQASSVHMNMNREQSFDIGTTHEVACPRNESNSLKRSIADICNETEDPTQQSTFAKRADTTVTWGKALPAADDEVSCSNIDRKGMLKKEKLKHMQGLLNSQNDTSNHKKQDNKEMEDGLGLTQVEKPRGIFD
B7: Rad24 (natural protein)
chain: MDSTNLNKRPLLQYSLSSLGSQITKWSSSRPTSPVRKARSTENDFLSKQDTSSILPSINDDGGEQWYEKFKPNCLEQVAIHKRKLKDVQEALDAMFLPNAKHRILLLSGPSGCSKSTVIKELSKILVPKYRQNSNGTSFRSTPNEHKVTEFRGDCIVNDLPQMESFSEFLKGARYLVMSNLSLILIEDLPNVFHIDTRRRFQQLILQWLYSSEPLLPPLVICITECEIPENDNNYRKFGIDYTFSAETIMNKEILMHPRLKRIKFNPINSTLLKKHLKFICVQNMKMLKEKNKWNKRQEVIDYIAQETGDIRSAITTLQFWATSSGSLPISTRESTISYFHAIGKVIHGSHSTNNDNEMINNLFENSNNLLSKEDFKLGILENYNTFNKGEFSISDASSIVDCLSECDNMNGLPESNEYGLREVRKTFRNISKQGHNHGTVYFPREWKVRKLQNSFKVQAEDWLNVSLYKYNAVHSFRNITLEFGYYAPLIRKCQSYKKKYILYYLKNLPSGSSGPKQTMDKFSDIMKVENGIDVVDRIGGPIEALSVEDGLAPLMDNDSNNCDHLEDQKKERDRRLRMLIDQYERNVMMANDDLEDEETSFNDDPIVDSDSDNSNNIGNETFGRSDEDESLCEILSQRQPRKAPVISESLSDSDLEIL

What was measured:
Assay in all cases: cryo-EM structure
Rad24 = target: B7
[1] = target: T1, 9-1-1 clamp (Ddc1–Mec3–Rad17) (S. cerevisiae, UniProt Q08949;Q02574;P48581)
T1 sequence 1: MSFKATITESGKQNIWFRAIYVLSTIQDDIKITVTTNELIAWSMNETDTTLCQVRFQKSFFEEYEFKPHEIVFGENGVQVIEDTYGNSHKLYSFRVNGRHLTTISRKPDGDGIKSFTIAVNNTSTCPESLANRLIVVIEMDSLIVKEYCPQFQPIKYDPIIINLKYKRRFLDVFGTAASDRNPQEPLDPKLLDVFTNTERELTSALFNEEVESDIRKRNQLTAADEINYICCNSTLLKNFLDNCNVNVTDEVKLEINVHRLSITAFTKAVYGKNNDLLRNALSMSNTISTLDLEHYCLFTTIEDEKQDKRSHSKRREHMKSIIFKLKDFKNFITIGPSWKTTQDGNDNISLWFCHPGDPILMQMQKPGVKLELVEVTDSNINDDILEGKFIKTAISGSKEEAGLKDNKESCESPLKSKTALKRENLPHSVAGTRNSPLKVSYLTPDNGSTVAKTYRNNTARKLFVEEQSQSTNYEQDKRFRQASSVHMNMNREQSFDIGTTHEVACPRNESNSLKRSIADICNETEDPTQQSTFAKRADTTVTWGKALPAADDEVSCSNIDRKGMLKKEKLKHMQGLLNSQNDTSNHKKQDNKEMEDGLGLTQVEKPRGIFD
T1 sequence 2: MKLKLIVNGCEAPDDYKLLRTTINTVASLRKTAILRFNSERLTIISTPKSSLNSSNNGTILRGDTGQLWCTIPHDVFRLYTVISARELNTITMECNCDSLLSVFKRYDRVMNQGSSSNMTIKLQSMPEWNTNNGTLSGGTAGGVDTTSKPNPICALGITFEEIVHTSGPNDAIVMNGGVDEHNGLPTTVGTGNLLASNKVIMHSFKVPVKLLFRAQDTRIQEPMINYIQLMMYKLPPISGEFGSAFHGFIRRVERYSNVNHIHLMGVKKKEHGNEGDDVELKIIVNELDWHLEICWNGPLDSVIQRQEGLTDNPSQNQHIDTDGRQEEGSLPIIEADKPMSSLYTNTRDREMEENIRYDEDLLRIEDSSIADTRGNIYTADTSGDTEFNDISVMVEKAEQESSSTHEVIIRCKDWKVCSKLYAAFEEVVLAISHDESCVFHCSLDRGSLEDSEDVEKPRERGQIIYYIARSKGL
T1 sequence 3: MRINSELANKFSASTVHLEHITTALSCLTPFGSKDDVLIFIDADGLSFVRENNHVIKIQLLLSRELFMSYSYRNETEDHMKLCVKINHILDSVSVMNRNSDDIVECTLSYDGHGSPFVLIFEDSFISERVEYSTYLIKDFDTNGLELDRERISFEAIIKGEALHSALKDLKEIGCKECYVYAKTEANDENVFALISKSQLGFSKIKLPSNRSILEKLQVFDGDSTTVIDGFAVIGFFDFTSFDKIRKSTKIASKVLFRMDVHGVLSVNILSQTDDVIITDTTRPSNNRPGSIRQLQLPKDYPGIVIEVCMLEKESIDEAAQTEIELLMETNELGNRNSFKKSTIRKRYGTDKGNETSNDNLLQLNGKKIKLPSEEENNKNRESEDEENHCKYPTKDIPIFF

Ddc1 = target: B3
Rad17 = target: T2, Rad17 (S. cerevisiae, UniProt P48581 1-401)
T2 sequence: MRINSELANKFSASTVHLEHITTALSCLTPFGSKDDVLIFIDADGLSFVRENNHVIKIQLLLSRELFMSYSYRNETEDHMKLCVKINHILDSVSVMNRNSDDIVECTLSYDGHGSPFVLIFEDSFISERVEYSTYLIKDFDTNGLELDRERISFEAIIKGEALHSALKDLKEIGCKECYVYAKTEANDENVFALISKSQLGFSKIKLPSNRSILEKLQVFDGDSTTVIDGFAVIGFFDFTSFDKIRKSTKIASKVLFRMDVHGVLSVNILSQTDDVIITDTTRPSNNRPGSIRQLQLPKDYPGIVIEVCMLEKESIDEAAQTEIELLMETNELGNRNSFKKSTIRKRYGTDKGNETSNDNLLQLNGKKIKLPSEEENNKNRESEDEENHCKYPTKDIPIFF

B1: Rfc5 (natural protein)
chain: MSLWVDKYRPKSLNALSHNEELTNFLKSLSDQPRDLPHLLLYGPNGTGKKTRCMALLESIFGPGVYRLKIDVRQFVTASNRKLELNVVSSPYHLEITPSDMGNNDRIVIQELLKEVAQMEQVDFQDSKDGLAHRYKCVIINEANSLTKDAQAALRRTMEKYSKNIRLIMVCDSMSPIIAPIKSRCLLIRCPAPSDSEISTILSDVVTNERIQLETKDILKRIAQASNGNLRVSLLMLESMALNNELALKSSSPIIKPDWIIVIHKLTRKIVKERSVNSLIECRAVLYDLLAHCIPANIILKELTFSLLDVETLNTTNKSSIIEYSSVFDERLSLGNKAIFHLEGFIAKVMCCLD
binding result (Rad24): binds | binding result [1]: binds

B2: His-PK-Mec3 (natural protein)
chain: MKLKLIVNGCEAPDDYKLLRTTINTVASLRKTAILRFNSERLTIISTPKSSLNSSNNGTILRGDTGQLWCTIPHDVFRLYTVISARELNTITMECNCDSLLSVFKRYDRVMNQGSSSNMTIKLQSMPEWNTNNGTLSGGTAGGVDTTSKPNPICALGITFEEIVHTSGPNDAIVMNGGVDEHNGLPTTVGTGNLLASNKVIMHSFKVPVKLLFRAQDTRIQEPMINYIQLMMYKLPPISGEFGSAFHGFIRRVERYSNVNHIHLMGVKKKEHGNEGDDVELKIIVNELDWHLEICWNGPLDSVIQRQEGLTDNPSQNQHIDTDGRQEEGSLPIIEADKPMSSLYTNTRDREMEENIRYDEDLLRIEDSSIADTRGNIYTADTSGDTEFNDISVMVEKAEQESSSTHEVIIRCKDWKVCSKLYAAFEEVVLAISHDESCVFHCSLDRGSLEDSEDVEKPRERGQIIYYIARSKGL
binding result (Ddc1): binds

B3
binding result (Rad24): binds

B4: Rfc2 (natural protein)
chain: MFEGFGPNKKRKISKLAAEQSLAQQPWVEKYRPKNLDEVTAQDHAVTVLKKTLKSANLPHMLFYGPPGTGKTSTILALTKELYGPDLMKSRILELNASDERGISIVREKVKNFARLTVSKPSKHDLENYPCPPYKIIILDEADSMTADAQSALRRTMETYSGVTRFCLICNYVTRIIDPLASRCSKFRFKALDASNAIDRLRFISEQENVKCDDGVLERILDISAGDLRRGITLLQSASKGAQYLGDGKNITSTQVEELAGVVPHDILIEIVEKVKSGDFDEIKKYVNTFMKSGWSAASVVNQLHEYYITNDNFDTNFKNQISWLLFTTDSRLNNGTNEHIQLLNLLVKISQL
binding result (Ddc1): binds

B5: Rfc3 (natural protein)
chain: MSTSTEKRSKENLPWVEKYRPETLDEVYGQNEVITTVRKFVDEGKLPHLLFYGPPGTGKTSTIVALAREIYGKNYSNMVLELNASDDRGIDVVRNQIKDFASTRQIFSKGFKLIILDEADAMTNAAQNALRRVIERYTKNTRFCVLANYAHKLTPALLSRCTRFRFQPLPQEAIERRIANVLVHEKLKLSPNAEKALIELSNGDMRRVLNVLQSCKATLDNPDEDEISDDVIYECCGAPRPSDLKAVLKSILEDDWGTAHYTLNKVRSAKGLALIDLIEGIVKILEDYELQNEETRVHLLTKLADIEYSISKGGNDQIQGSAVIGAIKASFENETVKANV
binding result (Rad17): binds

B6: Rfc4 (natural protein)
chain: MSKTLSLQLPWVEKYRPQVLSDIVGNKETIDRLQQIAKDGNMPHMIISGMPGIGKTTSVHCLAHELLGRSYADGVLELNASDDRGIDVVRNQIKHFAQKKLHLPPGKHKIVILDEADSMTAGAQQALRRTMELYSNSTRFAFACNQSNKIIEPLQSRCAILRYSKLSDEDVLKRLLQIIKLEDVKYTNDGLEAIIFTAEGDMRQAINNLQSTVAGHGLVNADNVFKIVDSPHPLIVKKMLLASNLEDSIQILRTDLWKKGYSSIDIVTTSFRVTKNLAQVKESVRLEMIKEIGLTHMRILEGVGTYLQLASMLAKIHKLNNKA
binding result (Rad24): binds | binding result (Rad17): binds

B7
binding result [1]: binds
